B1: 4419252: IMAGE clone protein: PLCγ (protein)
chain: MAGAASPCANGCGPGAPSDAEVLHLCRSLEVGTVMTLFYSKKSQRPERKTFQVKLETRQITWSRGADKIEGAIDIREIKEIRPGKTSRDFDRYQEDPAFRPDQSHCFVILYGMEFRLKTLSLQATSEDEVNMWIKGLTWLMEDTLQAPTPLQIERWLRKQFYSVDRNREDRISAKDLKNMLSQVNYRVPNMRFLRERLTDLEQRSGDITYGQFAQLYRSLMYSAQKTMDLPFLEASTLRAGERPELCRVSLPEFQQFLLDYQGELWAVDRLQVQEFMLSFLRDPLREIEEPYFFLDEFVTFLFSKENSVWNSQLDAVCPDTMNNPLSHYWISSSHNTYLTGDQFSSESSLEAYARCLRMGCRCIELDCWDGPDGMPVIYHGHTLTTKIKFSDVLHTIKEHAFVASEYPVILSIEDHCSIAQQRNMAQYFKKVLGDTLLTKPVEISADGLPSPNQLKRKILIKHKKLAEGSAYEEVPTSMMYSENDISNSIKNGILYLEDPVNHEWYPHYFVLTSSKIYYSEETSSDQGNEDEEEPKEVSSSTELHSNEKWFHGKLGAGRDGRHIAERLLTEYCIETGAPDGSFLVRESETFVGDYTLSFWRNGKVQHCRIHSRQDAGTPKFFLTDNLVFDSLYDLITHYQQVPLRCNEFEMRLSEPVPQTNAHESKEWYHASLTRAQAEHMLMRVPRDGAFLVRKRNEPNSYAISFRAEGKIKHCRVQQEGQTVMLGNSEFDSLVDLISYYEKHPLYRKMKLRYPINEEALEKIGTAEPDYGALYEGRNPGFYVEANPMPTFKCAVKALFDYKAQREDELTFIKSAIIQNVEKQEGGWWRGDYGGKKQLWFPSNYVEEMVNPVALEPEREHLDENSPLGDLLRGVLDVPACQIAIRPEGKNNRLFVFSISMASVAHWSLDVAADSQEELQDWVKKIREVAQTADARLTEGKIMERRKKIALELSELVVYCRPVPFDEEKIGTERACYRDMSSFPETKAEKYVNKAKGKKFLQYNRLQLSRIYPKGQRLDSSNYDPLPMWICGSQLVALNFQTPDKPMQMNQALFMTGRHCGYVLQPSTMRDEAFDPFDKSSLRGLEPCAISIEVLGARHLPKNGRGIVCPFVEIEVAGAEYDSTKQKTEFVVDNGLNPVWPAKPFHFQISNPEFAFLRFVVYEEDMFSDQNFLAQATFPVKGLKTGYRAVPLKNNYSEDLELASLLIKIDIFPAKENGDLSPFSGTSLRERGSDASGQLFHGRAREGSFESRYQQPFEDFRISQEHLADHFDSRERRAPRRTRVNGDNRL
B2: 4237375: IMAGE clone protein: βTRCP2 (protein)
chain: MEPDSVIEDKTIELMCSVPRSLWLGCANLVESMCALSCLQSMPSVRCLQISNGTSSVIVSRKRPSEGNYQKEKDLCIKYFDQWSESDQVEFVEHLISRMCHYQHGHINSYLKPMLQRDFITALPEQGLDHIAENILSYLDARSLCAAELVCKEWQRVISEGMLWKKLIERMVRTDPLWKGLSERRGWDQYLFKNRPTDGPPNSFYRSLYPKIIQDIETIESNWRCGRHNLQRIQCRSENSKGVYCLQYDDEKIISGLRDNSIKIWDKTSLECLKVLTGHTGSVLCLQYDERVIVTGSSDSTVRVWDVNTGEVLNTLIHHNEAVLHLRFSNGLMVTCSKDRSIAVWDMASATDITLRRVLVGHRAAVNVVDFDDKYIVSASGDRTIKVWSTSTCEFVRTLNGHKRGIACLQYRDRLVVSGSSDNTIRLWDIECGACLRVLEGHEELVRCIRFDNKRIVSGAYDGKIKVWDLQAALDPRAPASTLCLRTLVEHSGRVFRLQFDEFQIISSSHDDTILIWDFLNVPPSAQNETRSPSRTYTYISR

Legend:
[1] = target: T1, pY1068 peptide (SEQ ID NO: 7) (Homo sapiens, UniProt P00533); assay: 96-well screen for phosphopeptide binding proteins, 7-spot IPR plates; settings: two steps of normalization; top 9 clones
T1 construct: phosphotyrosine at Tyr1068 (chemical modification); purchased New England Peptide, Fitchburg Mass; host or cells: chemical synthesis
Procedure: (§1) A screen was conducted using 7-spot IPR plates. The 7 spot NPT IPR plates are described in more detail in copending Provisional Application No. 60/301,932 (entitled “Assay Plates, Reader Systems and Methods for Luminescence Test Measurements”, filed on Jun. 29, 2001, hereby incorporated by reference) and particularly in the description of Plate Type D in Example 6.1 (NPT IPR plate) and U.S. application Ser. Nos. 10/185,274 and 10/185,363, filed Jun. 28, 2002, each hereby incorporated by reference. These plates consist of a 96 wells with 7 zones (spots) for the immobilization of proteins or other reagents. Each spot was coated with BSA conjugated to either a single phosphopeptide or multiple phosphopeptides.
(§2) The plates were prepared essentially as described in example 12. The seven spots supported, respectively, the following BSA conjugates IkB, pY992, pY1068, pY1148, Myc, “A”, and “6-P”. “A” refers to a conjugate of BSA with multiple peptides: IkB, pY1148, Myc which were then coupled to BSA. “6-P” refers to a conjugate of BSA with the following multiple peptides: IkB, pY1148, pY992, pY1068, Smad3C.
(§3) For the assay, 4 ul from TnT reaction product described above were added to the coated plate containing 50 μl of binding buffer supplemented with 50 ng/well Ru-Streptavidin. The binding reaction was allowed to proceed at room temperature for 1 hour with constant shaking. […] The ECL signals were measured using an imaging plate reader (IPR). The raw data from the IPR reader was then normalized using two steps of normalization. The first round was based on the 50 lowest values for a given specific spot.

[2] = target: T2, pY1148 (SEQ ID NO: 9) (Homo sapiens, UniProt P00533); assay: as above; settings: two steps of normalization; top 9 clones
T2 construct: phosphotyrosine at Tyr1148 (chemical modification); purchased New England Peptide, Fitchburg Mass; host or cells: chemical synthesis
Procedure: as §1, §2, §3

[3] = target: T3, pY992 peptide (SEQ ID NO: 5) (Homo sapiens, UniProt P00533); assay: as above; settings: two steps of normalization; top 9 clones
T3 construct: phosphotyrosine at Tyr992 (chemical modification); purchased New England Peptide, Fitchburg Mass; host or cells: chemical synthesis
Procedure: as §1, §2, §3

[4] = target: T4, Myc peptide (SEQ ID NO: 4) (Homo sapiens, UniProt P01106); assay: as above; settings: two steps of normalization; top 9 clones
T4 construct: phosphothreonine (T58) and phosphoserine (S62) (chemical modification); purchased New England Peptide, Fitchburg Mass; host or cells: chemical synthesis
T4 sequence (P01106 with tags, fused parts or gaps limits assumed): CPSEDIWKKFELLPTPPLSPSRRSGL
Procedure: as §1
The plates were prepared essentially as described in example 12. The seven spots supported, respectively, the following BSA conjugates IkB, pY992, pY1068, pY1148, Myc, “A”, and “6-P”. […]
For the assay, 4 ul from TnT reaction product described above were added to the coated plate containing 50 μl of binding buffer supplemented with 50 ng/well Ru-Streptavidin. […] The ECL signals were measured using an imaging plate reader (IPR). The raw data from the IPR reader was then normalized using two steps of normalization. […] These 50 lowest values were averaged and divided into each signal for that spot to generate a signal value which could be compared readily between the peptide-conjugate spots. […]

[5] = target: T5, IkBa-24pp (SEQ ID NO: 1) (Homo sapiens, UniProt P25963); assay: Single-well 4-spot assay for multiple peptide-protein interactions; format: binding
T5 construct: two phosphoserines in the DSGLDS motif (chemical modification); purchased New England Peptide, Fitchburg Mass; host or cells: chemical synthesis
T5 sequence (P25963 with tags, fused parts or gaps limits assumed): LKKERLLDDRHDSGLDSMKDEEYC
Text: Four phosphopeptides and their cognate binding proteins (Table 14) were selected for an integrated assay of multiple peptide-protein interaction in 4-spot Multi-Array plates. The IkBa-24pp peptide and its binding protein, βTRCP, are described in Example 10. The remaining peptides are derived from the carboxyl terminus of the EGF receptor. These phosphotyrosine containing peptides are recognized by different adaptor or effecter proteins of the receptor tyrosine kinase signaling pathway.
These four peptides were coupled to BSA carrier protein through cystine residue. After purification on PD-10 gel filtration columns, the peptide-BSA conjugates were then deposited on the assay domains of a 4-spot multi-array IPR plate (i.e., in one of the four exposed regions of working electrode defined by the dielectric layer) with an automated micro-dispensing system (Bio-Dot Dispenser, Bio-Dot, Irvine Calif.). Typically about 120 fmole of peptide:BSA conjugate in 0.25 μl was deposited on each spot of a 4-spot multi-array IPR plate. These plates are dried then used or stored under desiccated conditions. […] Thus, in this assay format, each peptide not only serves as the capture agent for assaying specific interaction with its binding protein, but also at the same time serves as a control for other peptide-protein interaction to be determined in the same well. […]

Row | Molecule | normalized ECL signal, pY1068 spot [1] | normalized ECL signal, pY1148 spot [2] | normalized ECL signal, pY992 spot [3] | normalized ECL signal, Myc spot [4] | ECL signal, spot 1 IkBa-24pp ([5]; 4-spot plate) | fold higher ECL signal from spot 1 than with TnT mixtures containing no exogenous DNA ([5]; spot 1 (IkBa-24pp-BSA conjugate)) [fold]
1 | B1 | 55 | 4 | 10 |  |  | 
2 | B2 |  |  |  | 10 | 5040 | 100

— patent US7063946B2, “Methods, reagents, kits and apparatus for protein function analysis” (Meso Scale Technologies, LLC., priority 2001, dated 2006)
